T1: ZIKV E DIII protein (residues 301-403) (Zika virus (strain GZ01))
T1 chain: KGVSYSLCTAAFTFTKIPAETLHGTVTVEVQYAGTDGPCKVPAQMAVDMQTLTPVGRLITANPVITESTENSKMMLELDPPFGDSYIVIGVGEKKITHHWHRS

B1: 2H-15 (antibody, V domains shown)
VH: EVQLVQSGAEVKKPGASVKVSCKASGYTFTSYDVNWVRQATGQGLEWMGWMNPNSGNTGYAQKFQGRVTMTRNTSISTAYMELSSLRSEDTAVYYCARVSSGSYYGSYYYYYYGMDVWGQGTTVTVSS
VL: SYELTQPPSASGTPGQRVTISCSGSSSNIGNNYVHWYQQLPGSAPKLLIYRNNQRPSGVPDRFSGSKSGTSGSLAISGLRSEDEADYYCASWDDSLSGHWVFGGGTKVTVL
B2: 2H-10 (antibody, V domains shown)
VH: B1 VH with E1Q, A9V, K19E, K23Q, Y27I, F29S, V34I, T41N
VL: B1 VL
B3: 2H-14 (antibody, V domains shown)
VH: B1 VH with E1Q, Q3H, L4A, D33G, V34I
VL: B1 VL
B4: 2H-3 (antibody, V domains shown)
VH: B1 VH with E1Q, A9R, D33E, V34I
VL: B1 VL
B5: 2H-9 (antibody, V domains shown)
VH: B1 VH with A9G, E10K, K12V, K13E, P14L, S31T, V34I
VL: B1 VL
B6: 2H-16 (antibody, V domains shown)
VH: B1 VH with E1Q, V34I, Y60C
VL: B1 VL
B7: 2H-4 (antibody, V domains shown)
VH: B1 VH with E1Q, A9R, A24G, V34I, T41P, E89G
VL: B1 VL
B8: 2H-1 (antibody, V domains shown)
VH: B1 VH with E1Q, V34I
VL: B1 VL
B9: 2H-5 (antibody, V domains shown)
VH: B1 VH with E1Q, K19N, S31M, V34I, A40T
VL: B1 VL
B10: 2H-6 (antibody, V domains shown)
VH: B1 VH with M51L, Q62E
VL: B1 VL
B11: 2H-2 (antibody, V domains shown)
VH: QVQLVQSGAEVKKPGSSVKVSCKASGGTFSSYAISWVRQATGQGLEWMGGIIPIFGTANYAQKFQGRVTITADESTSTAYMELSSLRSEDTAVYYCARVSSGSYYGSYYYYYYGMDVWGQGTTVTVSS
VL: B1 VL
B12: 2L-1 (antibody, V domains shown)
VH: EVQLVQSGAEVKKPGASVKVSCKASGYTFTSGHTFPSYDINWVRQATGQGLEWMGWMNPNRGNTGYAQKFQGRVTMTRNTSINTAYMELSSLRSEDTAVYYCARVRSGTNYGSYYYYYYGMDVWGQGTTVTVSS
VL: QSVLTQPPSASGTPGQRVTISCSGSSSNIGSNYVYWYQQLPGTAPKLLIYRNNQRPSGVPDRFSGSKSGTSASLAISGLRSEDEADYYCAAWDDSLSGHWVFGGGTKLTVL
B13: ZK2B10 (antibody, V domains shown)
VH: B12 VH
VL: B1 VL
B14: 2L-6 (antibody, V domains shown)
VH: B12 VH
VL: SVLQPQPPSASRHPGQRVTISCLHGSSSNIGNNYVSWYQQLPGTDPKLLIYRNNHAASGVPDRFSGSKSGTSASLAISGLRSEDEADYYCAAWDDSLSGHWVFGGGTKLTVL
B15: 2L-2 (antibody, V domains shown)
VH: B12 VH
VL: QSVLTHRPSASGHPGQRVTISCSGSSSNIGNNYVYWYQQLPGTAPKLLIYRNNQRPSGVPDRFSGSKSGTSASLAISGLRSEDEADYYCAAWDDSLSGHWVFGGGTKLTVL
B16: 2L-11 (antibody, V domains shown)
VH: B12 VH
VL: B15 VL with Q1Y, H6D, R7H, H13T, N31S, Q39E, R51N, D86Y
B17: 2L-9 (antibody, V domains shown)
VH: B12 VH
VL: B15 VL with Q1S, H6Q, R7P, H13T, S27T, N31S, V34A, Q39Y, S66F, I76V
B18: 2L-3 (antibody, V domains shown)
VH: B12 VH
VL: B15 VL with H13T, N31S, V34G
B19: 2L-8 (antibody, V domains shown)
VH: B12 VH
VL: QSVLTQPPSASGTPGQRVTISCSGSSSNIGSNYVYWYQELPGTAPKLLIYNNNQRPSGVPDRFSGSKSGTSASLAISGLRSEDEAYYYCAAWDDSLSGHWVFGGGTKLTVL

Numbering of substitutions follows the chain as printed.

For one assay, the target named is ZIKV E protein (GZ01) (Zika virus (strain GZ01)). The assay can be described thus: ELISA.
By EC50 is commonly meant the midpoint of the concentration-response curve. A low value points to a more potent agent. Molecule B1 yielded a 50% effective concentration (EC50) of 7.5 ng/mL.

In the case of B2, the EC50 was 5.2 ng/mL.

Turning to B3, the EC50 was found to be 242 ng/mL.

Molecule B4 yielded an EC50 of 23.7 ng/mL.

B5: the EC50 stood at 4.2 ng/mL.

In turn, B6 yielded an EC50 of 5.8 ng/mL.

The molecule B7 gave an EC50 of 6.5 ng/mL.

As for B8, the EC50 was found to be 5.3 ng/mL.

With B9, a half-maximal response (EC50) required 6.2 ng/mL.

Consider B10, for which it took 4.6 ng/mL to reach a half-maximal effect (EC50).

The molecule B11 returned an EC50 of more than 500 ng/mL.

With B12, the EC50 was more than 500 ng/mL.

B13: a half-maximal effect (EC50) was put at 3.3 ng/mL.

In turn, B14 had an EC50 of 356 ng/mL.

For the molecule B15, it took 216 ng/mL to reach a half-maximal effect (EC50).

For B16, the EC50 is more than 500 ng/mL.

On to B17, for which the EC50 was more than 500 ng/mL.

As to B18, the EC50 was more than 500 ng/mL.

B19 yielded an EC50 of more than 500 ng/mL.

A further assay deals with T1, ZIKV E DIII protein (residues 301-403). Briefly: ELISA. In general terms: An ELISA detects its analyte on a solid surface through an enzyme-linked reagent.
Take B1: the EC50 came out at 10 ng/mL.

Turning to B2, the EC50 is 11.2 ng/mL.

B3 had an EC50 of 215 ng/mL.

B4 showed an EC50 of 39 ng/mL.

In turn, B5 registered an EC50 of 5.9 ng/mL.

In turn, B6 displayed an EC50 of 4.1 ng/mL.

B7 came in with a 50% effective concentration (EC50) of 8.4 ng/mL.

In turn, B8 came in with an EC50 of 3.4 ng/mL.

B9: the EC50 turned out to be 4.8 ng/mL.

The molecule B10 had an EC50 of 3.9 ng/mL.

The molecule B11 gave an EC50 of more than 500 ng/mL.

For the molecule B12, the EC50 was more than 500 ng/mL.

B13 had an EC50 of 7.1 ng/mL.

In turn, B14 registered an EC50 of 335 ng/mL.

B15 had an EC50 of 267 ng/mL.

Take B16: the EC50 was more than 500 ng/mL.

As for B17, the EC50 was more than 500 ng/mL.

Molecule B18 registered an EC50 of more than 500 ng/mL.

Regarding B19, the EC50 was more than 500 ng/mL.

These data come from PMC6821881 (2019).
